Blank lines part the entries; values can stand above or below the binder they belong to.
Columns and labels:
Hu/Cy/Rh ROR1 - His [1] = biological target: T1, Hu/Cy/Rh ROR1 - His (human/cynomolgus/rhesus, UniProt Q01973 30-403, limits assumed); test: SPR, purified Hu/Cy/Rh ROR1-His
T1 construct: Purified His-tagged protein; also called HUMAN/CYNO/RHESUS ROR-1; not shown: His tag

[2] = biological target: T2, human ROR-1 endogenously expressed on JeKo-1 and MDA-MB-468 cells (human, UniProt Q01973 30-937); test: cell-based or functional assay
[3] = biological target: T2, human ROR-1 endogenously expressed on …; test: competition on MDA-MB-468 cells by flow cytometry: ATX-P-885 titrated first, then a saturating dose of labeled UC961 (Dy650-UC961) as the competed antibody
[4] = biological target: T2, human ROR-1 endogenously expressed on …; test: flow cytometry, titration on ROR-1 positive JeKo-1 cells, secondary antibody staining, Net MFI
[5] = biological target: T2, human ROR-1 endogenously expressed on …; test: flow cytometry on MDA-MB-468 cells, titrated antibody detected with a labeled secondary antibody, % Top MFI (cellular binning with 4A5-PE)
Mouse ROR1 - His = biological target: T3, Mouse ROR1 - His (mouse, UniProt Q9Z139 30-403, limits assumed); test: SPR, purified Mouse ROR1-His
T3 construct: Purified His-tagged protein; not shown: His tag
T3 sequence (Q9Z139 30-403 limits assumed): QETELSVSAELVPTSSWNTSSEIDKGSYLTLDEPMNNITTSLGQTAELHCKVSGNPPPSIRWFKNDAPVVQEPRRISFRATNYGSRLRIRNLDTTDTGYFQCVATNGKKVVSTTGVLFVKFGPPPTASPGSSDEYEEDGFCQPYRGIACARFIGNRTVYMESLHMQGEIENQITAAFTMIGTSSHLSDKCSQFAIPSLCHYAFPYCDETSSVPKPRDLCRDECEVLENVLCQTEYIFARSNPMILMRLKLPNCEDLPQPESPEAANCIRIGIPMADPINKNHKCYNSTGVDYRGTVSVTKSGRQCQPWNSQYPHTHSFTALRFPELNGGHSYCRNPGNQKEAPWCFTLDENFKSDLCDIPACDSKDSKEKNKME

[6] = biological target: T2, human ROR-1 endogenously expressed on …; test: flow cytometry on MDA-MB-468 cells, titrated antibody detected with a labeled secondary antibody, % Top MFI (cellular binning with Dy650-UC961)
[7] = biological target: T2, human ROR-1 endogenously expressed on …; test: cell binding saturation assay, flow cytometry on ROR-1 positive cells; one value told for the group
Hu/Cy/Rh ROR1 - His [8] = biological target: T1, Hu/Cy/Rh ROR1 - His; test: SPR (Carterra), head 'Kinetics (KD)' of the binning table; the sheet prints no unit, the four other KD values of the same head equal the KD (M) of Table 1 on Hu/Cy/Rh ROR1-His
[9] = biological target: T2, human ROR-1 endogenously expressed on …; test: competition on MDA-MB-468 cells by flow cytometry: ATX-P-875 titrated first, then a saturating dose of labeled 4A5 (4A5-PE) as the competed antibody

- Kd (Hu/Cy/Rh ROR1 - His [1]): 4.69 nM
- koff (Hu/Cy/Rh ROR1 - His [1]): 0.00591 s⁻¹
- kon (Hu/Cy/Rh ROR1 - His [1]): 1.26e+06 M⁻¹ s⁻¹
- Cellular Internalization, JeKo-1 (%) [2]: 75%
- Cellular Internalization, MDA-MB-468(%) [2]: 80%
B1: UC961 (ATX-P-453) (antibody, V domains shown)
VH: QVQLQESGPGLVKPSQTLSLTCTVSGYAFTAYNIHWVRQAPGQGLEWMGSFDPYDGGSSYNQKFKDRLTISKDTSKNQVVLTMTNMDPVDTATYYCARGWYYFDYWGHGTLVTVSS
VL: DIVMTQTPLSLPVTPGEPASISCRASKSISKYLAWYQQKPGQAPRLLIYSGSTLQSGIPPRFSGSGYGTDFTLTINNIESEDAAYYFCQQHDESPYTFGEGTKVEIK

- IC50 (read off the curve) [3]: ~3 nM
- EC50 (read off the curve) [4]: ~0.3 nM
- EC50 (read off the curve) [5]: ~2 nM
- Kd (Hu/Cy/Rh ROR1 - His [1]): 10.9 nM
- koff (Hu/Cy/Rh ROR1 - His [1]): 0.00295 s⁻¹
- kon (Hu/Cy/Rh ROR1 - His [1]): 270000 M⁻¹ s⁻¹
- Kd (Mouse ROR1 - His): 45.3 nM
- koff (Mouse ROR1 - His): 0.00132 s⁻¹
- kon (Mouse ROR1 - His): 29200 M⁻¹ s⁻¹
- EC50 (read off the curve) [6]: ~3 nM
- saturating concentration [7]: 74 nM
- Cellular Internalization, JeKo-1 (%) [2]: 75%
- Cellular Internalization, MDA-MB-468(%) [2]: 89%
B2: ATX-P-885 (antibody, human IgG1, kappa, V domains shown)
VH: QVQLQQWGAGLLKPSETLSLTCAVYGGSFSGYYWSWIRQPPGKGLEWIGEINHSGSTNYNPSLKSRVTISVDTSKNQFSLKLSSVTAADTAVYYCAREGVYEDYWGQGTLVTVSS
VL: EIVLTQSPATLSLSPGERATLSCRASQSVSNYLAWYQQKPGQAPRLLIYDAYNRATGIPARFSGSGSGTDFTLTISSLEPEDFAVYYCQQRSNWPLTFGQGTRLEIKR
notes: human IgG1 heavy chain and kappa light chain

- Kd (Hu/Cy/Rh ROR1 - His [8]): 2.81 nM
B3: 4A5 (antibody, V domains shown)
VH: EVKLVESGGGLVKPGGSLKLSCAASGFTFSSYAMSWVRQIPEKRLEWVASISRGGTTYYPDSVKGRFTISRDNVRNILYLQMSSLRSEDTAMYYCGRYDYDGYYAMDYWGQGTSVTVSS
VL: DIKMTQSPSSMYASLGERVTITCKASPDINSYLSWFQQKPGKSPKTLIYRANRLVDGVPSRFSGGGSGQDYSLTINSLEYEDMGIYYCLQYDEFPYTFGGGTKLEMK

- IC50 (read off the curve) [9]: ~0.7 nM
- EC50 (read off the curve) [5]: ~0.6 nM
- EC50 (read off the curve) [6]: ~0.9 nM
- saturating concentration [7]: 74 nM
- Cellular Internalization, JeKo-1 (%) [2]: 75%
- Cellular Internalization, MDA-MB-468(%) [2]: 89%
B4: ATX-P-875 (antibody, human IgG1, kappa, V domains shown)
VH: not shown
VL: DIQMTQSPSSLSASVGDRVTITCRASQSISSYLNWYQQKPGKAPKLLIYAASSLQSGVPSRFSGSGSGTDFTLTISSLQPEDFATYYCQQYDNLPITFGQGTRLEIKR
notes: as for B2

— patent US20260137795A1 (IMMUNOME, published 2026)
